Results from US20250376495.

Biological target: ubiquitin, P0CG48
Sequence (P0CG48 whole entry, looked up): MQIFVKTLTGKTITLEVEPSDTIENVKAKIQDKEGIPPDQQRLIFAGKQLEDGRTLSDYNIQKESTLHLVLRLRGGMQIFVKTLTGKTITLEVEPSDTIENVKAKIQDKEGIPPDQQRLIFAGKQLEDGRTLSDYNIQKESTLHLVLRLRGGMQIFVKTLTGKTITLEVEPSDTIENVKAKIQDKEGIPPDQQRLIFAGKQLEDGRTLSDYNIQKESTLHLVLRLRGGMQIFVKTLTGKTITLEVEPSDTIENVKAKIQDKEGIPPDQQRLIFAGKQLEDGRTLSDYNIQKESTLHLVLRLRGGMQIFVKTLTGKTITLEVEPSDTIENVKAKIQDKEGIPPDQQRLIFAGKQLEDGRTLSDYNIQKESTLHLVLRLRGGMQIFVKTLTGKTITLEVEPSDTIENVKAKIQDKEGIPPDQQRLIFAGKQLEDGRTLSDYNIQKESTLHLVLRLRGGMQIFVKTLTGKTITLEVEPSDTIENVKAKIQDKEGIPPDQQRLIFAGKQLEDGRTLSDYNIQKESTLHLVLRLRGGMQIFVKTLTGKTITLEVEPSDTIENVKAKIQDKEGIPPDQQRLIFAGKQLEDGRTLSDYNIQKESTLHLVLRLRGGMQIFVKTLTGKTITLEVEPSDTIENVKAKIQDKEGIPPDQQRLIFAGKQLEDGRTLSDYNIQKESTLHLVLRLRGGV

Protein	Ube2W-mediated TRIM21 RING monoubiquitination time-course
TRIM21 RING E13A (protein) MASAARLTMMWEAVTCPICLDPFVEPVSIECGHSFCQECISQVGKGGGSVCPVCRQRFLLKNLRPNRQLANMVNNLKEISQEARE	TRIM21 mutants E13A and E13R both showed a slight reduction in activity
TRIM21 RING E13R (protein) MASAARLTMMWERVTCPICLDPFVEPVSIECGHSFCQECISQVGKGGGSVCPVCRQRFLLKNLRPNRQLANMVNNLKEISQEARE	TRIM21 mutants E13A and E13R both showed a slight reduction in activity
